Assays:
Test in all cases: FRET or BRET; FLIM-FRET, Cerulean (donor) and mOrange (acceptor) fusions co-expressed in N. benthamiana leaves, two days post infiltration; Cerulean fluorescence lifetime, multiphoton excitation at 810 nm
[1] = molecular target: NFR1:Cerulean (Lotus japonicus) (UniProt Q70KR8)
[2] = molecular target: LjSYMREM1:mOrange (full length) (Lotus japonicus)
[3] = molecular target: LjSYMREM1C:mOrange (Lotus japonicus)

Chain of UniProt Q70KR8 (Q70KR8 entry or part of it): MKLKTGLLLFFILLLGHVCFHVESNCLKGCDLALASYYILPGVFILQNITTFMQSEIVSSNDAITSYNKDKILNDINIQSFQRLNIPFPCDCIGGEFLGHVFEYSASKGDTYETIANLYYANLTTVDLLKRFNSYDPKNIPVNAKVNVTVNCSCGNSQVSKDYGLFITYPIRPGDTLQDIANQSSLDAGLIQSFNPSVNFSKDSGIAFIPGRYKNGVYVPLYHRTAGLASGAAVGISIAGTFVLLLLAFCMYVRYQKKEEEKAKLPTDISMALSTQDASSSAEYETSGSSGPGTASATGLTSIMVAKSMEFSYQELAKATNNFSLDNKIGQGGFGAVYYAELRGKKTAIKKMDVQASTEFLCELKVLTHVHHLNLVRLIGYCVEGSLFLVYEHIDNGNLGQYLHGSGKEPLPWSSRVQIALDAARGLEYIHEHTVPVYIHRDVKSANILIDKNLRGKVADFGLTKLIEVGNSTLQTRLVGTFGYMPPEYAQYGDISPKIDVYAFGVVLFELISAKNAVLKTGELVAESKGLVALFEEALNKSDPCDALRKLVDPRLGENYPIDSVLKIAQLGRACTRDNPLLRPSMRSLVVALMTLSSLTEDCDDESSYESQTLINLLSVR

Row | Cerulean fluorescence lifetime [1] | FRET efficiency [1] | Cerulean fluorescence lifetime [2] | FRET efficiency [2] | Cerulean fluorescence lifetime [3] | FRET efficiency [3] | Substance
1 | 2.09 ns | 4.1% | – | – | – | – | LjSYMREM1N:mOrange (domain or fragment)
2 | – | – | 1.99 ns | 8.8% | 1.97 ns | 9.6% | NFR1:Cerulean (from UniProt Q70KR8 1-621) (receptor)

— article PMC3264624
